T1: CD320 extracellular domain, residues 53-199 (crystallization construct) (human, UniProt Q9NPF0 53-199)
T1 construct: CD320 (transcobalamin receptor), human, residues 53-199 of the extracellular domain; native secretion signal replaced with a Melittin secretion signal; Density seen for LDLR-A1 residues 53-89 and LDLR-A2 residues 129-171; none for the EGF-like domain (90-128); also called N-terminal 22 amino acid deletion of the receptor; not shown: His9, N-terminal, cleaved; MBP, N-terminal, cleaved
T1 sequence (looked up): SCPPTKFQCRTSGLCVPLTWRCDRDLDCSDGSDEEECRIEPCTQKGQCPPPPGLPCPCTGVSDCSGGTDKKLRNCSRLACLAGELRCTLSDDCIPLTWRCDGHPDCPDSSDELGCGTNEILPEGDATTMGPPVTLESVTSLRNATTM

B1: MBP-tagged, biotinylated CD320 LDLR-A2 domain (residues 125-199, Avi Tag) (domain or fragment)
chain: not shown
modifications: biotin on the Avi Tag (BirA)
notes: CD320, human, LDLR type A domain 2 construct, residues 125-199; source: Sf21 insect cells (Multibac baculovirus), secreted, purified (Ni-NTA, no MBP cleavage), biotinylated with BirA; not shown: His9, N-terminal, kept; MBP, N-terminal, kept
B2: human transcobalamin (holo-TC, cyanocobalamin-bound) (natural protein, UniProt P20062 19-427, looked up)
chain: EMCEIPEMDSHLVEKLGQHLLPWMDRLSLEHLNPSIYVGLRLSSLQAGTKEDLYLHSLKLGYQQCLLGSAFSEDDGDCQGKPSMGQLALYLLALRANCEFVRGHKGDRLVSQLKWFLEDEKRAIGHDHKGHPHTSYYQYGLGILALCLHQKRVHDSVVDKLLYAVEPFHQGHHSVDTAAMAGLAFTCLKRSNFNPGRRQRITMAIRTVQEEILKAQTPEGHFGNVYSTPLALQFLMTSPMRGAELGTACLKARVALLASLQDGAFQNALMISQLLPVLNHKTYIDLIFPDCLAPRVMLEPAAETIPQTQEIISVTLQVLSLLPPYRQSISVLAGSTVEDVLKKAHELGGFTYETQASLSGPYLTSVMGKAAGEREFWQLLRDPNTPLLQGIADYRPKDGETIELRLVSW
notes: transcobalamin (TC), human, residues 1-409, cDNA GenBank BC001176.1 harbouring R209Q; native secretion signal replaced with a Melittin secretion signal; Purified in the presence of excess cyanocobalamin (Cbl-CN), so the Cbl site is occupied; R209Q came with the bought cDNA clone (ImaGenes); also called tag-less TC; full-length TC; source: Sf21 insect cells (Multibac baculovirus), secreted, …

Assay [1] concerns the target B2. The experiment in a line: ELISA; solid-phase binding assay: biotinylated MBP-tagged receptor on Neutravidin plates, tag-less TC serially diluted in 20 mM Tris pH 7.5, 0.5 mM CaCl2, 150 mM NaCl, 0.05% Tween-20, 1 h RT; TC detected with antibody A-5; single-site fit, n=5. The following applies: both partners purified.
Assay [2] addresses T1, CD320 extracellular domain, residues …. The experiment in a line: crystal structure; co-crystals of the purified complex, sitting drop, 20 °C. The following applies: both partners purified.

These results are taken from PMC4947154, “Structural basis of transcobalamin recognition by human CD320 receptor” (Nature Communications, 2016).

Turning to B1, the Kd in assay [1] is approximately 10 nM.

As to B2, the “stoichiometry N” value in assay [2] was 1 TC:CD320.

One may read the Kd as the constant that tells how readily two partners part at equilibrium. Higher therefore signals a looser complex.
